The record followed here is patent US20230365700A1 (BIOSION, published 2023).

Usually EC50 stands for the concentration at which the effect is half-maximal. What is called IC50 is the concentration needed to halve the response being measured.

Read-outs that look alike come from different tables or passages of the source.

Assay [1] addresses T1, full length human CD40 (uniprot #P25942-1, SEQ ID NO: 30) on 293T cells (human, UniProt P25942 21-277). Kind of assay: flow cytometry (FACS) on 293T-CD40 cells expressing full length human CD40; MFI. How it is done: (§1) 2×10⁵ cells were incubated in each well of 96 well-plates in 100 μl anti-CD40 antibodies of the disclosure or controls of various concentrations (starting at 80 nM with a 4-fold serial dilution) in FACS buffer for 40 minutes on ice. […] Following an incubation of 40 minutes at 4° C. in dark, cells were washed three times and resuspended in FACS buffer. Fluorescence was measured using a Becton Dickinson FACS Canto II-HTS equipment and plotted against antibody concentration. Data was analyzed using Graphpad Prism software and EC₅₀ values were reported.
For orientation: Flow cytometry measures light scatter and fluorescence of single cells or particles in a stream.

Assay [2] concerns the target T2, human CD40-Fc protein (amino acid residue 21-193 of SEQ ID NO: 30 linked to N-terminus of amino acid residue … (human, biotin-labeled in the capture ELISA and the benchmark blocking ELISA; unlabeled when coated in the ligand blocking ELISA).
T2 construct: also called biotin-labeled human CD40-Fc; human CD40-Fc-biotin
Kind of assay: capture ELISA: antibody captured on goat anti-mouse IgG F(ab')2-specific coat, detected with biotin-labeled human CD40-Fc (1.15 nM) and streptavidin-HRP; OD(450-630). How it is done:
(§2) Plates were washed once with wash buffer (PBS+0.05% v/v Tween-20, PBST) and then blocked with 200 μl/well blocking buffer (5% w/v non-fatty milk in PBST) for 2 hours at 37° C. Plates were washed 4 times and incubated with 100 μl/well serially diluted anti-CD40 antibodies of the disclosure, BM1, BM2 and negative control hIgG (human immunoglobulin (pH4) for intravenous injection, Hualan Biological Engineering Inc.) (5-fold serial dilution in 2.5% w/v non-fatty milk in PBST, starting at 66.7 nM) for 40 minutes at 37° C., and then washed 4 times again. […] After a final wash, plates were incubated with 100 μl/well ELISA substrate TMB (Innoreagents, Cat #TMB-S-002) at room temperature. The reaction was stopped in 3-10 minutes with 50 μl/well 1M H₂SO₄, and the absorbance of each well was read on a microplate reader using dual wavelength mode with 450 nm for TMB and 630 nm as the reference wavelength, then the OD (450-630) values were plotted against antibody concentration. Data was analyzed using Graphpad Prism software and EC₅₀ values were reported.
(In an ELISA, binding on a coated surface is turned into a signal by an enzyme label.)

The target of assay [3] is T2, human CD40-Fc protein (amino acid …). Kind of assay: competitive ELISA: antibody pre-incubated with biotin-labeled human CD40-Fc (0.23 nM), mixture added to coated BM2; competitor: BM2; OD(450-630); only partial: OD falls from about 1.13 to a plateau of about 0.77. How it is done: (§3) The abilities of the anti-CD40 antibodies of the disclosure to block Benchmark-human CD40 binding was measured in a competitive ELISA assay. Briefly, the BM2 antibody was coated on 96-well micro plates at 1 μg/mL in PBS, 100 μl per well, and incubated overnight at 4° C. The next day, plates were washed once with wash buffer, and blocked with blocking buffer (5% w/v non-fatty milk in PBST) for 2 hours at 37° C. While blocking, the anti-CD40 antibodies of the disclosure or controls were diluted with biotin labeled human CD40-Fc protein (amino acid residue 21-193 of SEQ ID NO: 30 linked to N-terminus of amino acid residue 99-330 of SEQ ID NO.:28, 0.23 nM in 2.5% v/v non-fatty milk in PBST), starting at 66.7 nM with a 5-fold serial dilution, and incubated at room temperature for 40 minutes. After plate washing 4 times, the antibody/human CD40-Fc-biotin mixtures were added to BM2 coated plates, 100 μl/well. After incubation at 37° C. for 40 minutes, plates were washed 4 times again using wash buffer. […] Finally, TMB was added and the reaction was stopped using 1M H2504, and the absorbance was read on a microplate reader using dual wavelength mode with 450 nm for TMB and 630 nm as the reference wavelength, then the OD (450-630) values were plotted against antibody concentration. Data was analyzed using Graphpad Prism software and IC₅₀ values were reported.

The target is the same in assay [4]. Kind of assay: capture ELISA: antibody captured on goat anti-mouse IgG F(ab')2-specific coat, detected with biotin-labeled human CD40-Fc (1.15 nM) and streptavidin-HRP; OD(450-630). How it is done: as §2
The source holds these as a separate data set.

The target is the same in assay [5]. Description: competitive ELISA: antibody added to coated human CD40-Fc, then biotin-labeled human CD40L-his (95 ng/mL); blocked ligand: CD40L-his; OD(450-630). How it is done: (§4) The abilities of anti-CD40 antibodies to block CD40-CD40L binding were measured in a competitive ELISA assay. Briefly, 100 μl human CD40-Fc protein (amino acid residue 21-193 of SEQ ID NO: 30 linked to N-terminus of amino acid residue 99-330 of SEQ ID NO.:28) was coated on 96-well micro plates at 2 μg/mL in coating buffer (carbonate/bicarbonate buffer) and incubated overnight at 4° C. The next day, plates were washed once with wash buffer (PBS+0.05% v/v Tween-20, PBST), and blocked with 5% w/v non-fatty milk in PBST for 2 hours at 37° C. Plates were then washed 4 times using wash buffer.
Serially diluted anti-CD40 antibodies of the disclosure or controls (starting at 200 nM with a five-fold serial dilution) in PBST with 2.5% w/v non-fatty milk were added to the CD40-Fc bound plates, 100 μl per well, and incubated at 37° C. for 40 minutes. […] Finally, TMB was added and the reaction was stopped using 1M H2504, and the absorbance of each well was read on a microplate reader using dual wavelength mode with 450 nm for TMB and 630 nm as the reference wavelength, then the OD (450-630) values were plotted against antibody concentration. Data was analyzed using Graphpad Prism software and IC₅₀ values were reported.

Assay [6] has the same target. The description is as above. How it is done: as §4
Serially diluted anti-CD40 antibodies of the disclosure or controls (starting at 200 nM with a five-fold serial dilution) in PBST with 2.5% w/v non-fatty milk were added to the CD40-Fc bound plates, 100 μl per well, and incubated at 37° C. for 40 minutes. Plates were washed 4 times again using wash buffer, and then added and incubated for 40 minutes at 37° C. with 100 μl/well 95 ng/mL biotin-labeled human CD40L-his protein (Sino biological Inc., Cat #10239-H08E). Plates were washed again using wash buffer. Thereafter, the plates were added with 100 μl/well of streptavidin conjugated HRP (1:10000 dilution in PBST buffer, Jackson Immunoresearch, Cat #016-030-084) and incubated for 40 minutes at 37° C. Plates were washed again using wash buffer. Finally, TMB was added and the reaction was stopped using 1M H2504, and the absorbance of each well was read on a microplate reader using dual wavelength mode with 450 nm for TMB and 630 nm as the reference wavelength, then the OD (450-630) values were plotted against antibody concentration. Data was analyzed using Graphpad Prism software and IC₅₀ values were reported.
The source holds these as a separate data set.

For assay [7], the target named is T1, full length human CD40 (uniprot …). Kind of assay: flow cytometry (FACS) on 293T-CD40 cells expressing full length human CD40; MFI. How it is done:
as §1
This is another data set of the same source.

Assay [8] concerns the target T2, human CD40-Fc protein (amino acid …). Description: competitive ELISA: antibody pre-incubated with biotin-labeled human CD40-Fc (0.23 nM), mixture added to coated BM2; competitor: BM2; OD(450-630). On the procedure: as §3
Assay [9] has the same target. Description: competitive ELISA: antibody pre-incubated with biotin-labeled human CD40-Fc (0.23 nM), mixture added to coated BM2; competitor: BM2; OD(450-630); only partial: OD falls from about 1.13 to a plateau of about 0.92. How it is done:
as §3

Assay [10] has the same target. Kind of assay: capture ELISA: antibody captured on goat anti-mouse IgG F(ab')2-specific coat, detected with biotin-labeled human CD40-Fc (1.15 nM) and streptavidin-HRP; OD(450-630); the curve reaches only OD about 0.9 at the highest concentration, no plateau. On the procedure: as §2
The target is the same in assay [11]. Kind of assay: competitive ELISA: antibody pre-incubated with biotin-labeled human CD40-Fc (0.23 nM), mixture added to coated BM2; competitor: BM2 (self-competition); OD(450-630). On the procedure: as §3
The target is the same in assay [12]. The assay is described as above. How it is done: as §3
The source holds these as a separate data set.

B1: mouse anti-CD40 monoclonal antibody 1A3 (antibody, V domains shown)
VH: EVQLQQSGPELVKTGASVKISCKASGYSFIGYYLHWVKQSLGKGLEWIGYISCHDGTIIYNQKFKGKATFTLDTSSSTAYMQFSSLTSEDSAVYFCARFLNYYGSNYAMDYWGQGTSVTVSS
VL: DIVMTQSHKFMSTSVGDRVSITCKASQDVGPAVAWYQQKPGQSPKLLIYWASTRHTGVPDRFTGSGYGTDFTLTINNVQSEDLADYFCQQYFTYPLTFGGGTKLEIK
notes: Hybridoma-derived mouse mAb; also called Clone 1A3
As for B1, the EC50 in [1] amounted to 1.71 nM; in assay [2] it was 0.0906 nM. The IC50 in assay [3] is 0.18 nM.

B2: BM1 (Dacetuzumab) (antibody, human IgG1, kappa, V domains shown)
VH: EVQLVESGGGLVQPGGSLRLSCAASGYSFTGYYIHWVRQAPGKGLEWVARVIPNAGGTSYNQKFKGRFTLSVDNSKNTAYLQMNSLRAEDTAVYYCAREGIYWWGQGTLVTVSS
VL: DIQMTQSPSSLSASVGDRVTITCRSSQSLVHSNGNTFLHWYQQKPGKAPKLLIYTVSNRFSGVPSRFSGSGSGTDFTLTISSLQPEDFATYFCSQTTHVPWTFGQGTKVEIKR
notes: Benchmark antibody, made in house; also called CD40-BM1; benchmark
Regarding B2, the EC50 turned out to be 0.975 nM in [1], 0.248 nM in assay [4], 2.46 nM in assay [7] and 0.236 nM in [2]. In addition, the IC50 was 6.95 nM in [5], 7.91 nM in assay [6] and 0.234 nM in [8].

B3: mouse anti-CD40 monoclonal antibody C1H1 (antibody, V domains shown)
VH: EVKLVESGGGLVKPGASLKLSCAASGFTFSNYGISWVRQTSDKRLEWVASISSGGDNTYYPDNVKGRFTISRENAKNTLYLQMSSLKSEDTALYYCARAGEKAMDYWGQGTSVTVSS
VL: DIVLTQSPVTLSVTPGDSVSLSCRASQTINNNLHWYQQKSHESPRLLIKYASQSISGIPSRFSGSGSGTDFTLSINSVETEDFGIYFCQQFSSWPLTFGAGTKLELK
notes: Hybridoma-derived mouse mAb purified on Protein A; also called mouse C1H1; Clone C1H1
As to B3, the values for the EC50 in assay [4] and in assay [7] were 0.0774 nM and 1.95 nM, respectively. For the same molecule, in [6], the IC50 was found to be 7.83 nM.

B4: mouse anti-CD40 monoclonal antibody 1D1 (antibody, V domains shown)
VH: EVQLQQSGPELVKPGASVKMSCKASGYTFTDYVMHWVKQKPGQGLECIGYINPYNDGTTYNEKFKGKATLTSDKSSNAAYLELSSLTSEDSAVYYCARGFLRESWFGYWGQGTLVTVSA
VL: DVLLTQTPLSLPVSLGDQASISCRSSQNIVHSNGNTYLDWYLQKPGQSPKLLIYKVSNRFSGVPDRFSGSGSGTDFTLKISRVEAEDLGVYYCFQGSHVPPTFGGGTKLELK
notes: Hybridoma-derived mouse mAb; also called Clone 1D1
Take B4: the EC50 was 1.79 nM in [1] and 10.9 nM in assay [10]. For the same molecule, the IC50 in [9] came out at 4.84 nM.

B5: BM2 (Selicrelumab) (antibody, human IgG2, kappa, V domains shown)
VH: not shown
VL: DIQMTQSPSSVSASVGDRVTITCRASQGIYSWLAWYQQKPGKAPNLLIYTASTLQSGVPSRFSGSGSGTDFTLTISSLQPEDFATYYCQQANIFPLTFGGGTKVEIKR
notes: Benchmark antibody, made in house; also called CD40-BM2; benchmark
Take B5: the concentration giving a half-maximal response (EC50) stood at 2.01 nM in assay [1], 0.28 nM in assay [4], 3.26 nM in assay [7] and 0.637 nM in [2]. Further, the IC50 in assay [5] stood at 9 nM; in assay [11], 0.804 nM; in assay [6] it was 9.7 nM; in [12] it was 0.678 nM.
